The text below walks through data of patent publication CN109021107A (JIANGSU RUONAIBO BIOLOGY MEDICAL TECH CO LTD, dated 2018).

Positions count from the first letter of the chain named.

For assay [1], the target named is T1, PD-L1 on PD-L1 overexpressing cells (human, UniProt Q9NZQ7 19-290).
T1 construct: whole, on cells; also called PD-L1过表达细胞; PD-L1稳定过表达CHO细胞株
The assay can be described thus: phage cell-binding ELISA on PD-L1 overexpressing cells, anti-M13-HRP.

Assay [2] addresses T2, recombinant PD-L1-His protein (human, UniProt Q9NZQ7 19-238).
T2 construct: also called 重组PD-L1-HIS蛋白; PD-L1蛋白; not shown: His tag
The assay can be described thus: hybridoma supernatant screen, ELISA on coated PD-L1-His.

For assay [3], the target named is T3, recombinant PD-L1-Fc protein (human, UniProt Q9NZQ7 19-238, limits assumed).
T3 construct: also called 重组PD-L1-Fc蛋白; PD-L1重组蛋白; not shown: Fc part
The assay can be described thus: competition ELISA, coated PD-L1-Fc, competitor biotinylated PD1 0.5ug/ml.

Assay [4] deals with T1, PD-L1 on PD-L1 overexpressing cells. The assay can be described thus: cell binding, PD-L1 overexpressing cells, anti-human-IgG-Eu fluorescence.
Assay [5] shares this target. Kind of assay: inhibition of biotinylated PD1 binding to PD-L1 overexpressing cells, Eu-streptavidin.
For assay [6] the target is unchanged. Kind of assay: cell-based or functional assay.
For the next assay, the target named is T4, recombinant human B7-2 (human, UniProt P42081 24-247, limits assumed).
T4 construct: also called 人B7-2
T4 sequence (looked up): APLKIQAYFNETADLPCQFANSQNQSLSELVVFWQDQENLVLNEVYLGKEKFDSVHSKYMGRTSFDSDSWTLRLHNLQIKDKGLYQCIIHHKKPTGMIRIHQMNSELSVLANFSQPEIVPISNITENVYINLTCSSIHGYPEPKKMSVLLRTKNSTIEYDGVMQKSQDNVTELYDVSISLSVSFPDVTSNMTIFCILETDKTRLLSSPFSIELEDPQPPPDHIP
Kind of assay: ELISA, coated recombinant protein, anti-human IgG-HRP.

A further assay addresses T5, recombinant human PDL2 (human, UniProt Q9BQ51 20-220, limits assumed).
T5 construct: also called 人PDL2
T5 sequence (looked up): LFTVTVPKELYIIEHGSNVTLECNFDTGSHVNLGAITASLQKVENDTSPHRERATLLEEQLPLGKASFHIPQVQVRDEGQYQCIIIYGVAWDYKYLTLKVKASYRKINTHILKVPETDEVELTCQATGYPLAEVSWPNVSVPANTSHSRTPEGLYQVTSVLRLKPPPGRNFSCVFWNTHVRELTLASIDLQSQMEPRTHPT
Described as above.

The target of a further assay is T6, recombinant human B7-1 (human, UniProt P33681 35-242, limits assumed).
T6 construct: also called 人B7-1
T6 sequence (looked up): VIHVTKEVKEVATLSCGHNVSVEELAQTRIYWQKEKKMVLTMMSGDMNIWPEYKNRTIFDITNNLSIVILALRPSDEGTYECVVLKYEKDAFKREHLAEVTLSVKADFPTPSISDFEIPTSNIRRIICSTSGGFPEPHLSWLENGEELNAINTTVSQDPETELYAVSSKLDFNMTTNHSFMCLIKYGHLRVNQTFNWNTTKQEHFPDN
The description is as above.

The target in assay [7] is T2, recombinant PD-L1-His protein. The assay can be described thus: ELISA, coated PD-L1-HIS, donkey anti-human IgG-HRP.
Assay [8] has the same target. Kind of assay: SPR, BIAcore T200, antibody captured by goat anti-human IgG on CM5 chip, 300nM PD-L1-HIS as analyte.

T2 sequence (Q9NZQ7 19-238 limits assumed): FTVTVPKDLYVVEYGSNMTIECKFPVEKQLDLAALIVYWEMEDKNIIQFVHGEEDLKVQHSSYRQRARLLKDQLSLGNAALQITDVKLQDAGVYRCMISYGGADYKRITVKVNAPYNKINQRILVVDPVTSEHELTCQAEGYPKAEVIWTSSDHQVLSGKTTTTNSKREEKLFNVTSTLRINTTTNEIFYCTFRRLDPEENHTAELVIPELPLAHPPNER
T1 sequence (Q9NZQ7 19-290): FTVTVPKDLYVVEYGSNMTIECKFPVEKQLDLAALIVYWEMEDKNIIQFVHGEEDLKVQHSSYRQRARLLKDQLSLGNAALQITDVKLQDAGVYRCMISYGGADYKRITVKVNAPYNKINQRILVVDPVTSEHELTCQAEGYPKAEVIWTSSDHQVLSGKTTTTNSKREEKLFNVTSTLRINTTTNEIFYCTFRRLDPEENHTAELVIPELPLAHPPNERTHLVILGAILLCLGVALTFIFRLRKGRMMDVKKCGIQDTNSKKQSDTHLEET
T3 sequence (Q9NZQ7 19-238 limits assumed): as the sequence (Q9NZQ7 19-238 limits assumed) above

B1: HUL01 scFv displayed on phage (scFv)
scFv: EVQLQESGPGLVKPSQTLSLTCTVSGDSFSSGYWNWIRQHPGKGLEYIGYVSYTGSTYYIPSLKSRVTISRDTSKNQFSLKLSSVTAADTAVYYCAGYRDWLHGYFDYWGQGTTVTVSSGGGGSGGGGSGGGGSDIQMTQSPSSLSASVGDRVTITCKASQNVGTNVAWYQQKPGKAPKRLIYSASYRFSGVPSRFSGSGSGTEFTLTISSLQPEDFATYYCQQYNGYPLTFGQGTKLEIK
notes: also called clone1; clone2
In the case of B1, the binding result in assay [1] is recorded as “binds”.

B2: HUL02 scFv displayed on phage (scFv)
scFv: B1 scFv with G164M, T165D
notes: Phage clone from the library built on the HUL01 scFv template; also called clone4
For B2, the binding result in assay [1] is listed as “binds”.

B3: murine monoclonal antibody specifically binding PD-L1 (hybridoma clone of Example 1) (antibody, V domains shown)
VH: EVQLQESGPSLVQPSQTLSLTCSVTGDSFTSGYWNWIRKFPDNKLQYMGYVSYTGSTYYIPSLKSRISITRDTSKNQYFLQLNSVTSEDTATYFCAGYRDWLHGYFDYWGQGTTLTVSS
VL: DIVMTQSQKFMSTSIGDRVSVTCKASQNVGTNVAWYQLKPGQSPKALIYSASYRFSGVPDRFTGSGSGTEFTLTITNVQSEDLTDYFCQQYNGYPLTFGAGTKLEVK
notes: Mouse IgG from hybridoma supernatant; also called 鼠源特异性结合PD-L1单克隆抗体; 鼠源抗体
On to B3, for which the binding result in assay [2] is reported as “binds”.

B4: HUL01 (antibody, human IgG1, kappa, N297A, V domains shown)
VH: EVQLQESGPGLVKPSQTLSLTCTVSGDSFSSGYWNWIRQHPGKGLEYIGYVSYTGSTYYIPSLKSRVTISRDTSKNQFSLKLSSVTAADTAVYYCAGYRDWLHGYFDYWGQGTTVTVSS
VL: DIQMTQSPSSLSASVGDRVTITCKASQNVGTNVAWYQQKPGKAPKRLIYSASYRFSGVPSRFSGSGSGTEFTLTISSLQPEDFATYYCQQYNGYPLTFGQGTKLEIKR
notes: expressed in 293C18 cells, Protein A purified; also called clone1; clone2
Regarding B4, the IC50 in [3] amounted to 0.117 µg/mL; in assay [5], 0.228 µg/mL. Further, the EC50 in assay [4] is 0.13 µg/mL.

B5: HUL02 (antibody, human IgG1, kappa, N297A, V domains shown)
VH: B4 VH
VL: B4 VL with G30M, T31D
notes: also called clone4; PD-L1抗体HUL02
Regarding B5, the “刺激T淋巴细胞IL-2分泌的EC50 (MLR, CD4+ T cells and DC)” value in assay [6] came to 0.062 µg/mL. Further, the binding result in the assay with recombinant human B7-2, with recombinant human PDL2 and with recombinant human B7-1 was “no binding (tested: 1ug/ml)” in each case. The results for the IC50 in assay [3] and in [5] were 0.0716 µg/mL and 0.115 µg/mL, respectively. Further, the EC50 is 0.0206 µg/mL in assay [7] and 0.0695 µg/mL in [4]. The dissociation constant Kd in [8] was 0.17 nM.
